Laboratory results as given in patent publication US20210347900A1.

Columns and labels:
[1] = target: human LOX1 on cells (human LOX1 transfected CHO TREX cells) (human) (UniProt P78380); assay: cell-based or functional assay
[2] = target: human LOX1 on cells (human LOX1 transfected CHO TREX cells) (human) (UniProt P78380); assay: competition with DyLight 649 oxLDL on human LOX1 CHO TREX cells, FMAT
[3] = target: human LOX1 on cells (human LOX1 transfected CHO TREX cells) (human) (UniProt P78380); assay: competition with DyLight 649 AGE-BSA on human LOX1 CHO TREX cells, FMAT
[4] = target: recombinant human LOX1 (R&D Systems) (human) (UniProt P78380); assay: competition with biotin CRP on plate-bound recombinant human LOX1, DELFIA

23C11, commercially available mouse anti-LOX-1 antibody
IC50 of inhibition of Cypher 5E oxLDL internalization in hLOX1 CHO TREX cells (row label not given; assay assigned by block order of Table 5) [1]: 2.85 nM | IC50 of inhibition of oxLDL-dependent ROS generation in hLOX1 CHO TREX cells (row label not given; assay assigned by block order of Table 5) [1]: 10.1 nM | IC50 (read off the curve) [2]: 3 nM | IC50 (read off the curve) [3]: 2 nM | IC50 (read off the curve) [4]: 10 nM
